Positions count from the first letter of the chain named. Values belong to the binder of their own block, whether it stands above or below them.
Target: T1, human NRP1 protein (human, UniProt O14786 22-856, limits assumed)
T1 construct: also called hNRP1 protein; neuropilin 1
T1 sequence (looked up): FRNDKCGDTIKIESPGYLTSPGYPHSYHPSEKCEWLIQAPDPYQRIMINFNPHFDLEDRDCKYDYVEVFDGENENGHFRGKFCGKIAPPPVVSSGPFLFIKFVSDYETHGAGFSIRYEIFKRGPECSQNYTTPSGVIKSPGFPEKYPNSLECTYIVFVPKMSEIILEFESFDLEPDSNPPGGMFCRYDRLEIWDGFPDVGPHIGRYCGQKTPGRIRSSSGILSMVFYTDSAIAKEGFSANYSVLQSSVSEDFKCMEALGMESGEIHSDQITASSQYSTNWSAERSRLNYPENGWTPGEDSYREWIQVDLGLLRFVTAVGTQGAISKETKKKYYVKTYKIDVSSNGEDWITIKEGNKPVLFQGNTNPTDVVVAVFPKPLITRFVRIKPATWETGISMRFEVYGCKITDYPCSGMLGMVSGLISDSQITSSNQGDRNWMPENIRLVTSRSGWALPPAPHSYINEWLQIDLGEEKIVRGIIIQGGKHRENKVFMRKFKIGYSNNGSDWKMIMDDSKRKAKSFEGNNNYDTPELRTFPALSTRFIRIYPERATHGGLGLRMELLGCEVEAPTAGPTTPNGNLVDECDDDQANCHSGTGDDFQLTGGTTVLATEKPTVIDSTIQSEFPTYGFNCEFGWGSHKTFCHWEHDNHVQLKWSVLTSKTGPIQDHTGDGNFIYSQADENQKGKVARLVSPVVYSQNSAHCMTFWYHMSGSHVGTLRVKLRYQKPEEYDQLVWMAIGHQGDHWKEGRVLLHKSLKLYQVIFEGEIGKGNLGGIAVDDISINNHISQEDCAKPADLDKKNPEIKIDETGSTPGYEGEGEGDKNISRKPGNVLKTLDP
Assay: SPR, Biacore T100

Kd: 295 nM
B1: 3H10 scFv (scFv, V domains shown)
VH: EVQLLESGGGLVQFQQSLRLSQAASQFTFSSYYMSWVRQAFGKGLEWVSAISPGSSNKYYADSVKGRFTISRDNSKNTLYLQMNELRAEDTAVYYCARRKYMFDYWGQGTLVTVSS
VL: GSVLTQPPSASGTPGQRVTISCTGESSNIGNNDVYWYQQLPGTAFKLLIYSQSNRPSGMPDRFSGSKSGTSASLAISGLRSEDEADYYCASWDSSLSGYVFGGGTKLTVTL

Kd: 89.4 nM
B2: 1A03 scFv (scFv, V domains shown)
VH: B1 VH with Q15G, Q16G, Q26G, P53F, K65Q, Y101K, M102S
VL: QSVLTQFFSASGTPGQRVTISCSGFSSNIGNNDVSWYQQLFGTAPKLLIYSCNNRPSGVPDRFSGSKSGTSASLAISGLRSSDEADYYCGAWVASLSAYVFGGGTKLTVTL

From US20190227052A1 (published 2019)
